Results on 2 molecules are retold here after US20260234584A1, “R-LOOP SENSOR” (FUNDAÇÃO GIMM - GULBENKIAN INSTITUTE FOR MOLECULAR MEDICINE, priority 2023, published 2026).

Holding throughout (type): cell-based, human
In assay [1] the test system is R-loops foci in U2OS cells. Nature of the assay: Quantification of RHINO R-loops foci after transcription inhibition with triptolide. An excerpt:
(A) Illustration of RHINO structure (left) and DNA:RNA hybrid labelling in an R-loop behind a transcribing RNA Pol II complex (right). The positions of the amino acids substituted in the RHINO mutants are indicated by red […]) and blue ([…]) asterisks. (B) Confocal microscopy images of RHINO expressed in U2OS cells together with mCherry-H2B to mark the cell nucleus and a corresponding max. intensity projection. RHINO spots throughout the nucleoplasm (highlighted in inset image) and intense labelled foci in the nucleoli are shown. (C) Comparison of RHINO and S9.6 antibody labelling of DNA:RNA hybrids. The nucleolar signals of S9.6 and RHINO are mutually exclusive (inset). (D) Expression of two RHINO mutant constructs and mCherry-histone-H2B. […] (E) Max. intensity projections of live U2OS cells expressing RHINO alone (left) or co-expressing mScarlet-i tagged human RNase H1 (right) and quantification of RHINO foci for each condition. (F) Quantification of RHINO foci upon use of a rapid inducible RNase H1. […] Quantification of RHINO foci before and 1 h after TA addition. (G) Max. intensity projections of random live U2OS cells expressing RHINO before and after 1 h incubation with Triptolide and quantification of RHINO foci number. (H) Max. intensity projections of the same live U2OS cells expressing RHINO before and after 1 h incubation with Triptolide and quantification of RHINO foci number. […]

Assay [2] has as its system nucleolar R-loops in U2OS cells. The assay is described as follows: FRAP on individual nucleolar RHINO foci. The note with it: in 200 seconds. The text has this: (A) Labelling of nucleolar R-loops in live U2OS cells. Nucleoli are labelled by a red fluorescent nucleolar marker. Bright RHINO foci in several nucleoli are indicated with arrowheads. (B) Dissecting R-loop localization in nucleolar substructures. U2OS cells expressing RHINO were fixed and stained with an anti-UBF antibody marking the fibrillar centres/dense fibrillar component interface. Display of two super-resolution microscopy image sets acquired with structured illumination (top) and Airyscan 2 technology (bottom). (C) Measurements of nucleolar R-loops dynamics by FRAP on RHINO foci inside nucleoli. The fluorescence within the red circle was bleached (false colour images) and the recovery monitored over time. […] (D) Labelling of Tel-R-loops in live U2OS cells co-expressing RHINO and iRFP-TRF2. […]
Owing to the lack of robust tools to image and collect quantitative parameters of R-loops in live cells, a clear understanding of R-loops dynamics and of their specific kinetics at distinct genomic loci is scarce. […] To investigate the dynamics of nucleolar R-loops, fluorescence recovery was performed after photobleaching (FRAP) experiments in individual nucleolar RHINO foci (FIG. 2C). We observed a rapid turnover of fluorescent RHINO molecules, which restored 90% of the initial fluorescence intensity in 200 seconds (FIG. 2C).

Assay [3] has as its system telomeric R-loops in U2OS cells. Nature of the assay: FRAP at labelled telomeres. The text has this: (A) Labelling of nucleolar R-loops in live U2OS cells. Nucleoli are labelled by a red fluorescent nucleolar marker. Bright RHINO foci in several nucleoli are indicated with arrowheads. (B) Dissecting R-loop localization in nucleolar substructures. U2OS cells expressing RHINO were fixed and stained with an anti-UBF antibody marking the fibrillar centres/dense fibrillar component interface. Display of two super-resolution microscopy image sets acquired with structured illumination (top) and Airyscan 2 technology (bottom). (C) Measurements of nucleolar R-loops dynamics by FRAP on RHINO foci inside nucleoli. The fluorescence within the red circle was bleached (false colour images) and the recovery monitored over time. […] (D) Labelling of Tel-R-loops in live U2OS cells co-expressing RHINO and iRFP-TRF2. Several telomeres show directly adjacent or overlapping labelling of R-loops (magnified details 1-5). […] (E) Measurements of Tel-R-loops dynamics by FRAP of wild-type RHINO compared to both mutants and diffuse GFP at labelled telomeres. False colour images show the wild-type RHINO labelled cell with the bleach region (red circle). The curves display the mean intensity (+/−SD) of RHINO foci, RHINO mutants and diffuse GFP as control. […]

Consider `CC(C)[C@]12O[C@H]1[C@@H]1O[C@]13[C@]1(O[C@H]1C[C@H]1C4=C(CC[C@@]13C)C(=O)OC4)[C@@H]2O` [triptolide], for which the “number of R-loops foci detected by RHINO” value in assay [1] (one-hour treatment, bulk cell population of U2OS cells) was “significantly decrease”. Also, in assay [1] (same RHINO-expressing cells imaged before and one hour after treatment), the “reduction in the number of R-loops foci” value is 46%.

B1: RHINO: genetically encoded RNA:DNA hybrid-binding sensor; fusion protein comprising 3 HBDs and a reporter domain (e.g., a fluorescent protein) (protein)
chain: MFYAVRRGRKTGVFLTWNECRAQVDRFPAARFKKFATEDEAWAFVRKSASVDGTAGPGSAVFYAVRRGRKTGVFLTWNECRAQVDRFPAARFKKFATEDEAWAFVRKSASVDGTAGPGSAVFYAVRRGRKTGVFLTWNECRAQVDRFPAARFKKFATEDEAWAFVRKSASVDGTAGPGSTGVTGKLDPPVATMVSKGEEDNMASLPATHELHIFGSINGVDFDMVGQGTGNPNDGYEELNLKSTKGDLQFSPWILVPHIGYGFHQYLPYPDGMSPFQAAMVDGSGYQVHRTMQFEDGASLTVNYRYTYEGSHIKGEAQVKGTGFPADGPVMTNSLTAADWCRSKKTYPNDKTIISTFKWSYTTGNGKRYRSTARTTYTFAKPMAANYLKNQPMYVFRKTELKHSKTELNFKEWQKAFTDVMGMDELYK
With B1, in assay [2], the “restored initial fluorescence intensity after photobleaching” value was found to be 90%. The “fluorescence recovery relative to initial intensity” value in assay [3] (major fraction of telomeric R-loops, within 10-15 seconds after photobleaching) is listed as 88%. In addition, the “fluorescence recovery, second population of telomeric R-loops” value in assay [3] (other (minor) population of telomeric R-loops) is on record as “little to no recovery”.
